Test results taken from the supplement of paper PMC9112550, “Optimization of the antimicrobial peptide Bac7 by deep mutational scanning” (BMC Biology, 2022).

Test system: Escherichia coli TOP10
Assay: shrunken log2 fold change of peptide-encoding DNA abundance (4.5 h post-induction vs induction); higher = less antimicrobial activity (less host growth inhibition)
Settings: time post-induction: 4.5 h; library: site-saturation at positions 5, 18, 19, 20
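Further: peptides expressed intracellularly from a pBAD plasmid library in pooled LB shake-flask culture, induced with 0.3% L-arabinose, DNA abundance read by NGS, three biological replicates, DESeq2 with apeglm shrinkage.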

Sequence | shrunken log2 fold change
RRIRPRPPRLPRPRPRPATIPRP | -0.118
RRIRPRPPRLPRPRPRPVKMPRP | 0.137
RRIRIRPPRLPRPRPRPIHRPRP | -0.197
RRIRRRPPRLPRPRPRPIAEPRP | 0.446
RRIRPRPPRLPRPRPRPCGSPRP | -0.023
RRIRMRPPRLPRPRPRPHEHPRP | 0.301
RRIRIRPPRLPRPRPRPAKHPRP | -0.476
RRIRGRPPRLPRPRPRPFHFPRP | 0.119
RRIRYRPPRLPRPRPRPPIDPRP | -0.35
RRIRSRPPRLPRPRPRPDMDPRP | -0.201
RRIRHRPPRLPRPRPRPPSHPRP | -0.139
RRIRDRPPRLPRPRPRPHFAPRP | -0.103
RRIRVRPPRLPRPRPRPAPVPRP | 0.349
RRIRPRPPRLPRPRPRPCSGPRP | -0.0356
RRIRQRPPRLPRPRPRPYFWPRP | -0.101
RRIRRRPPRLPRPRPRPNNFPRP | -0.00104
RRIRTRPPRLPRPRPRPHMCPRP | -0.195
RRIRYRPPRLPRPRPRPRPPPRP | 1.01
RRIRGRPPRLPRPRPRPSWNPRP | 0.285
RRIRIRPPRLPRPRPRPNANPRP | -0.252
RRIRHRPPRLPRPRPRPSVVPRP | 0.118
RRIRTRPPRLPRPRPRPLPAPRP | 0.364

Sequence | shrunken log2 fold change
RRIRIRPPRLPRPRPRPNSIPRP | -0.366
RRIRLRPPRLPRPRPRPLMGPRP | -0.0491
RRIRMRPPRLPRPRPRPTWKPRP | -0.0427
RRIRMRPPRLPRPRPRPCSNPRP | 0.0191
RRIRSRPPRLPRPRPRPAYYPRP | -0.495
RRIRERPPRLPRPRPRPQFTPRP | -0.472
RRIRHRPPRLPRPRPRPVAGPRP | 0.26
RRIRSRPPRLPRPRPRPGYCPRP | -0.119
RRIRNRPPRLPRPRPRPNDHPRP | -0.153
RRIRCRPPRLPRPRPRPNQYPRP | -0.92
RRIRVRPPRLPRPRPRPQGLPRP | -0.29
RRIRFRPPRLPRPRPRPSVVPRP | -0.786
RRIRQRPPRLPRPRPRPTCNPRP | -0.348
RRIRLRPPRLPRPRPRPQIMPRP | -0.444
RRIRRRPPRLPRPRPRPCMVPRP | 0.106
RRIRRRPPRLPRPRPRPMLRPRP | 0.854
RRIRKRPPRLPRPRPRPINRPRP | -0.159
RRIRWRPPRLPRPRPRPEGYPRP | 0.607
RRIRKRPPRLPRPRPRPQEQPRP | 0.225
RRIRVRPPRLPRPRPRPWGFPRP | 0.0189
RRIRARPPRLPRPRPRPYLLPRP | -0.76
RRIRPRPPRLPRPRPRPRWLPRP | 0.299

Sequence | shrunken log2 fold change
RRIRTRPPRLPRPRPRPLEGPRP | -0.0217
RRIRYRPPRLPRPRPRPYWHPRP | -0.451
RRIRDRPPRLPRPRPRPLHLPRP | -0.0348
RRIRGRPPRLPRPRPRPYARPRP | 0.416
RRIRQRPPRLPRPRPRPGAHPRP | 0.179
RRIRYRPPRLPRPRPRPRSLPRP | -0.0256
RRIRFRPPRLPRPRPRPHKCPRP | -0.106
RRIRFRPPRLPRPRPRPWREPRP | -0.149
RRIRTRPPRLPRPRPRPWMWPRP | 0.101
RRIRWRPPRLPRPRPRPGLLPRP | 0.403
RRIRNRPPRLPRPRPRPELSPRP | 0.0211
RRIRLRPPRLPRPRPRPVYDPRP | -0.0147
RRIRIRPPRLPRPRPRPACKPRP | -0.659
RRIRERPPRLPRPRPRPMFLPRP | -0.206
RRIRCRPPRLPRPRPRPFSTPRP | -0.472
RRIRIRPPRLPRPRPRPCWEPRP | -0.0815
RRIRLRPPRLPRPRPRPVYGPRP | -0.183
RRIRKRPPRLPRPRPRPSKIPRP | 0.154
RRIRRRPPRLPRPRPRPFEYPRP | -0.0276
RRIRWRPPRLPRPRPRPNPNPRP | 0.055
RRIRRRPPRLPRPRPRPDLPPRP | 0.0159
RRIRCRPPRLPRPRPRPEPEPRP | 0.706

Sequence | shrunken log2 fold change
RRIRQRPPRLPRPRPRPNNSPRP | -0.904
RRIRGRPPRLPRPRPRPNEEPRP | 0.621
RRIRRRPPRLPRPRPRPLPPPRP | 0.937
RRIRPRPPRLPRPRPRPRKLPRP | 0.342
RRIRSRPPRLPRPRPRPTINPRP | -0.229
RRIRNRPPRLPRPRPRPSNLPRP | -0.457
RRIRVRPPRLPRPRPRPFYRPRP | -0.576
RRIRQRPPRLPRPRPRPMYFPRP | -0.448
RRIRCRPPRLPRPRPRPVLAPRP | -0.0206
RRIRGRPPRLPRPRPRPKNGPRP | 0.0583
RRIRVRPPRLPRPRPRPWFHPRP | -0.711
RRIRARPPRLPRPRPRPRYHPRP | -0.135
RRIRLRPPRLPRPRPRPHHDPRP | -0.694
RRIRNRPPRLPRPRPRPENWPRP | 0.0185
RRIRWRPPRLPRPRPRPLHQPRP | 0.0809
RRIRHRPPRLPRPRPRPGQHPRP | -0.372
RRIRFRPPRLPRPRPRPYKRPRP | -0.827
RRIRYRPPRLPRPRPRPIVWPRP | 0.0267
RRIRIRPPRLPRPRPRPGWRPRP | 0.468
RRIRIRPPRLPRPRPRPEASPRP | 0.144
RRIRWRPPRLPRPRPRPCNKPRP | -0.738
RRIRERPPRLPRPRPRPCWMPRP | -0.239

Sequence | shrunken log2 fold change
RRIRCRPPRLPRPRPRPEQEPRP | -0.0332
RRIRWRPPRLPRPRPRPWTTPRP | -0.148
RRIRYRPPRLPRPRPRPLCNPRP | -0.0925
RRIRLRPPRLPRPRPRPDGAPRP | 0.0651
RRIRDRPPRLPRPRPRPSENPRP | -0.0386
RRIRERPPRLPRPRPRPAIYPRP | -0.051
RRIRQRPPRLPRPRPRPMSQPRP | -0.0185
RRIRERPPRLPRPRPRPWLVPRP | -0.436
RRIRGRPPRLPRPRPRPYDCPRP | -0.147
RRIRVRPPRLPRPRPRPEWSPRP | 0.267
RRIRCRPPRLPRPRPRPTLSPRP | -0.0995
RRIRMRPPRLPRPRPRPKQMPRP | 1.25
RRIRERPPRLPRPRPRPMGMPRP | -0.00992
RRIRIRPPRLPRPRPRPYEYPRP | -0.0772
RRIRHRPPRLPRPRPRPHVNPRP | -0.183
RRIRHRPPRLPRPRPRPDEYPRP | -0.00149
RRIRMRPPRLPRPRPRPVKQPRP | 0.0432
RRIRERPPRLPRPRPRPMFGPRP | 0.0215
RRIRYRPPRLPRPRPRPIRQPRP | -0.0123
RRIRPRPPRLPRPRPRPNAEPRP | 0.154
RRIRDRPPRLPRPRPRPLMYPRP | -0.00328
